Among the data in patent US20020094516 are integration activity (fold colonies vs wild-type integrase) and activity (fold colonies over background) values, retold here.

Series [1] deals with T1, phiC31 integrase mutant 1C1 (Phage phiC31).
T1 sequence: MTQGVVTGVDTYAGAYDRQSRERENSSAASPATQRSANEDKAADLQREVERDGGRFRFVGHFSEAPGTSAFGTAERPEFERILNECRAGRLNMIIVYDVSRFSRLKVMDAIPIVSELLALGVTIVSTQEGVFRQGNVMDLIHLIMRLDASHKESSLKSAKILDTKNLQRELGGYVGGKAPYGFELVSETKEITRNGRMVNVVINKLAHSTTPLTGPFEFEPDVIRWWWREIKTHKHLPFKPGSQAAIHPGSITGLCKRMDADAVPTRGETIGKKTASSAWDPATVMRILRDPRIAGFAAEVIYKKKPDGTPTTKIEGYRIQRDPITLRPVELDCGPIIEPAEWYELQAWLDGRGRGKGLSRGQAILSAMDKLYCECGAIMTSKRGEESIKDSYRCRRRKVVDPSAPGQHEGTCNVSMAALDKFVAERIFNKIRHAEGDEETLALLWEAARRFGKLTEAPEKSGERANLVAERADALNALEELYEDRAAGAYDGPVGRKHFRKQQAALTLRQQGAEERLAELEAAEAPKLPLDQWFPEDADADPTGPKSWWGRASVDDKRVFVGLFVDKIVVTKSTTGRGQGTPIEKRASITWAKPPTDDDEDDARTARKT
Briefly: cell_activity. As to conditions: human 293 cells, attB plasmid integration into genome; integration at psiA shown by PCR.

For series [2], the system named is T2, phiC31 integrase wild-type (Phage phiC31).
T2 sequence: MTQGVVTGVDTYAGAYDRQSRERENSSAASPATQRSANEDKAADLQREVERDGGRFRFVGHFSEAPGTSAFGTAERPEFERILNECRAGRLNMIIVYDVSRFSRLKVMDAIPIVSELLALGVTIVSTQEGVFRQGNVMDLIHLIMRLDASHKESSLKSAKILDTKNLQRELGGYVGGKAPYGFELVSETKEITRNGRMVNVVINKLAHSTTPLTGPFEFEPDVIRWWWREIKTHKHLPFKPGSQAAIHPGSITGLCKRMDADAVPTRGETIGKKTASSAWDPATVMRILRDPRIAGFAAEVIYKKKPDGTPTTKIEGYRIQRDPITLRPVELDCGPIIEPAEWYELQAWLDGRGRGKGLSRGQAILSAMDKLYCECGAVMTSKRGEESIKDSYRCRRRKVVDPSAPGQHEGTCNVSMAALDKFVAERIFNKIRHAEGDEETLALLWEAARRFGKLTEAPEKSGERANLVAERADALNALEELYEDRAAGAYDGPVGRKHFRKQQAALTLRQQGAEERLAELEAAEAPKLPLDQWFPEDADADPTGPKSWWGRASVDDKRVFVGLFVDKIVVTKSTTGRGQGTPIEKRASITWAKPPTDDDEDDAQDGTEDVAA
The series can be described thus: cell_activity. As to conditions: human 293 cells, attB plasmid integration into genome, G418 selection.

Regarding “CGATGTAGGTCACGGTCTCGAAGCCGCGGTGCGGGTGCCAGGGCGTGCCCTTGGGCTCCCCGGGCGCGTACTCCACCTCACCCATCTGGTCCATCATGATGAACGGGTCGAGGTGGCGGTAGTTGATCCCGGCGAACGCGCGGCGCACCGGGAAGCCCTCGCCCTCGAAACCGCTGGGCGCGGTGGTCACGGTGAGCACGGGACGTGCGACGGCGTCGGCGGGTGCGGATACGCGGGGCAGCGTCAGCGGGTTCTCGACGGTCACGGCGGGCATGTCGA (double strand) [phiC31 attB (full length)]”, in series [1], the integration activity (fold colonies vs wild-type integrase) is 2. Also, the activity (fold colonies over background) in series [2] is over 10.
